Earlier results as cited in publication PMC9836085.

Assays:
[1] = biological target: Rab6 (Drosophila melanogaster) (UniProt O18334)
[2] = biological target: Sas6 (Drosophila melanogaster) (UniProt Q9VAC8)
Sequence of UniProt Q9VAC8 (Q9VAC8 whole entry): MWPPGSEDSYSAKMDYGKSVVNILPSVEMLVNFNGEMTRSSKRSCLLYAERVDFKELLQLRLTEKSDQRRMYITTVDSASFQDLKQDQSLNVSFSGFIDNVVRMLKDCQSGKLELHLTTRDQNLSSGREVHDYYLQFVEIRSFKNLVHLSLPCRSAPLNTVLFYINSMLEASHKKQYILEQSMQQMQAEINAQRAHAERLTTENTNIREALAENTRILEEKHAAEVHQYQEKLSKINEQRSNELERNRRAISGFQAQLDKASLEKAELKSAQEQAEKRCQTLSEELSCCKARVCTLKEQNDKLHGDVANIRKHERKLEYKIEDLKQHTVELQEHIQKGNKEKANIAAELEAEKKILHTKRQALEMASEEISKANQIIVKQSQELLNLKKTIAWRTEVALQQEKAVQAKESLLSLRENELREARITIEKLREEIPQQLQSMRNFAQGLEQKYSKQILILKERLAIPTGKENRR

Sequence of UniProt O18334 (O18334 whole entry): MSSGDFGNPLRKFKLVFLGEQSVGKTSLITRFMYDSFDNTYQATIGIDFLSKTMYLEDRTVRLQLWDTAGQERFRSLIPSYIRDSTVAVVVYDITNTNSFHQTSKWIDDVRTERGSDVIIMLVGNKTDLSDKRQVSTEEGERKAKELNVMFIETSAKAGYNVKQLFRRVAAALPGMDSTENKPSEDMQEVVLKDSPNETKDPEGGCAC

## Gorab (from UniProt Q8IQQ4)
[1]
  Kd: 2240 nM
[2]
  Kd: 47 nM
